Laboratory results published in publication PMC7269131.

Target: Factor XIIIA (the A-subunit of coagulation Factor XIII), zymogen (UniProt P00488)
Assay: AUC

percent dissociated to monomers after 6 h in 25 mM CaCl2: 80%
Substance: Factor XIIIA (the A-subunit of coagulation Factor XIII), zymogen (from UniProt P00488 1-732) (enzyme)
